Experimental data from US20250270313A1 (SUNSHINE LAKE PHARMA, published 2025).

T1: hClaudin 18.2 peptide 18.2EL1-A (human)
T1 construct: also called peptide A; A peptide
T1 peptide: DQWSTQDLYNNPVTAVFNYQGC

T2: hClaudin 18.2 peptide 18.2EL1-E (human)
T2 construct: also called peptide E; E peptide
T2 peptide: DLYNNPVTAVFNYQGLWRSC


Legend:
[1] = molecular target: T3, human Claudin 18.2 (hClaudin18.2) (human, UniProt P56856-2 1-261); assay: cell-based or functional assay
[2] = molecular target: T1, hClaudin 18.2 peptide 18.2EL1-A; assay: peptide competition: antibody pre-incubated with peptide, then flow cytometry on CHO cells overexpressing claudin18.2
[3] = molecular target: T3, human Claudin 18.2 (hClaudin18.2); assay: flow cytometry on CHO cells overexpressing claudin18.2, purified murine antibody
Description: CHO overexpressing claudin18.1 cells and CHO overexpressing claudin18.2 cells were prepared, centrifuged at 300 g for 5 minutes, then resuspended in PBS, and this step was repeated twice. Finally, the concentration was adjusted to 3E+06 cells/mL with PBS. […] CHO overexpressing claudin18.1 cells and CHO overexpressing claudin18.2 cells were laid out in two rows of transparent 96 round-bottomed wells, each with 100 μL, and then the antibodies were added to the cells in order and mixed evenly at 1:1. Each was set blank wells and negative wells. The mixture was put in a refrigerator at 4° C. and incubated for 1 hour. After the incubation, the mixture was centrifuged at 500 g for 3 min in a large-capacity benchtop high-speed centrifuge, then resuspended in PBS, and this step was repeated three times. The PE-labeled goat anti-mouse secondary antibody was diluted to a concentration of 1:500, and 100 μL was added to each well. The blank wells were left alone. The mixture was put in a refrigerator at 4° C. and incubated for 30 min. After the incubation, the mixture was centrifuged at 500 g for 3 min in a large-capacity tabletop high-speed centrifuge, then resuspended in PBS, and this step was repeated three times. Finally, 180 μL of PBS was added to each well and BDverse flow cytometer was used to test.

[4] = molecular target: T2, hClaudin 18.2 peptide 18.2EL1-E; assay: peptide competition: antibody pre-incubated with peptide, then flow cytometry on CHO cells overexpressing claudin18.2
[5] = molecular target: T3, human Claudin 18.2 (hClaudin18.2); assay: flow cytometry on CHO cells overexpressing claudin18.2, scFv-Fc fusion protein
Description: CHO overexpressing claudin18.2 cells were prepared and centrifuged at 300 g for 5 minutes, then resuspended in PBS, and this step was repeated twice. Finally, the concentration was adjusted to 3E+06 cells/mL with PBS. […] CHO overexpressing claudin18.1 cells and CHO overexpressing claudin18.2 cells were laid out in two rows of transparent 96 round-bottomed wells, each with 100 μL, and then the antibodies were added to the cells in order and mixed evenly at 1:1. Each was set blank wells and negative wells. The mixture was put in a refrigerator at 4° C. and incubated for 1 hour. After the incubation, the mixture was centrifuged at 500 g for 3 min in a large-capacity benchtop high-speed centrifuge, then resuspended in PBS, and this step was repeated three times. The PE-labeled goat anti-human secondary antibody was diluted to a concentration of 1:500, and 100 μL was added to each well. The blank wells were left alone. The mixture was put in a refrigerator at 4° C. and incubated for 30 min. After the incubation, the mixture was centrifuged at 500 g for 3 min in a large-capacity tabletop high-speed centrifuge, then resuspended in PBS, and this step was repeated three times. Finally, 180 μL of PBS was added to each well and BDverse flow cytometer was used to test.

| Binder | ADCC reporter (Jurkat-NFAT-Luc-CD16 luciferase), half-peak concentration EC50, target cell BXPC-3-Claudin 18.2 [1] [ng/mL] | ADCC reporter (Jurkat-NFAT-Luc-CD16 luciferase), half-peak concentration EC50, target cell Capan-1-Claudin 18.2 [1] [ng/mL] | ADCC reporter (Jurkat-NFAT-Luc-CD16 luciferase), half-peak concentration EC50, target cell SK-GT-Claudin 18.2 [1] [ng/mL] | CDC activity (CCK8 cell viability, OD450), half inhibitory concentration IC50, target cell KATOIII-3-Claudin 18.2 [1] [ng/mL] | other results |
| --- | --- | --- | --- | --- | --- |
| chimeric antibody 1B6 (antibody, human IgG1, kappa) heavy: not shown light: DIVMTQSPSSLTVTAGEKVTMSCKSSQSLFNSGNQKNYLTWYQQKPGQPPKLLIYWASTRESGVPDRFTGSGSGTDFTLTISSVQAEDLAVYFCQNDYSYPLTFGAGTKLELRRTVAAPSVFIFPPSDEQLKSGTASVVCLLNNFYPREAKVQWKVDNALQSGNSQESVTEQDSKDSTYSLSSTLTLSKADYEKHKVYACEVTHQGLSSPVTKSFNRGEC | 2.11 | 2.68 | 4.47 | 2660 |  |
| chimeric antibody 1E7 (antibody, human IgG1, kappa) heavy: not shown light: DIVMTQSPSSLSVTAGEKVTMSCKSSQSLLNSGNQKNYLTWYQQKPGQPPKLLIYWASTRESGVPDRFTGSGSGTDFTLTISSVQAEDLAVYYCQNDYSYPFTFGSGTKLEIKRTVAAPSVFIFPPSDEQLKSGTASVVCLLNNFYPREAKVQWKVDNALQSGNSQESVTEQDSKDSTYSLSSTLTLSKADYEKHKVYACEVTHQGLSSPVTKSFNRGEC | 2.7 | 2.63 | 7.07 | 1570 |  |
| IMAB362 control antibody (antibody, V domains shown) VH: QVQLQQPGAELVRPGASVKLSCKASGYTFTSYWINWVKQRPGQGLEWIGNIYPSDSYTNYNQKFKDKATLTVDKSSSTAYMQLSSPTSEDSAVYYCTRSWRGNSFDYWGQGTTLTVSS VL: DIVMTQSPSSLTVTAGEKVTMSCKSSQSLLNSGNQKNYLTWYQQKPGQPPKLLIYWASTRESGVPDRFTGSGSGTDFTLTISSVQAEDLAVYYCQNDYSYPFTFGSGTKLEIKR | 3.45 | 3.48 | 9.06 | 4890 |  |
| m1E7 anti-Claudin 18.2 murine monoclonal antibody (antibody, mouse IgG2b, kappa, Murine antibody with full heavy and light chains; also called 1E7 (hybridoma); m1E7 mAb) heavy: QVQLQQPGSELVKPGASVKLSCKASGYTFTSYWMHWVKQRPGQGLEWIGMIHPNSGSTNYNEKFKSKATLTVDKSSSTAYMQLSSLTSEDSAVYYCARRYYGSISPDYWGQGTTLTVSSAKTTPPSVYPLAPGCGDTTGSSVTLGCLVKGYFPESVTVTWNSGSLSSSVHTFPALLQSGLYTMSSSVTVPSSTWPSQTVTCSVAHPASSTTVDKKLEPSGPISTINPCPPCKECHKCPAPNLEGGPSVFIFPPNIKDVLMISLTPKVTCVVVDVSEDDPDVQISWFVNNVEVHTAQTQTHREDYNSTIRVVSTLPIQHQDWMSGKEFKCKVNNKDLPSPIERTISKIKGLVRAPQVYILPPPAEQLSRKDVSLTCLVVGFNPGDISVEWTSNGHTEENYKDTAPVLDSDGSYFIYSKLNMKTSKWEKTDSFSCNVRHEGLKNYYLKKTISRSPGK light: DIVMTQSPSSLSVTAGEKVTMSCKSSQSLLNSGNQKNYLTWYQQKPGQPPKLLIYWASTRESGVPDRFTGSGSGTDFTLTISSVQAEDLAVYYCQNDYSYPFTFGSGTKLEIKRADAAPTVSIFPPSSEQLTSGGASVVCFLNNFYPKDINVKWKIDGSERQNGVLNSWTDQDSKDSTYSMSSTLTLTKDEYERHNSYTCEATHKTSTSPIVKSFNRNEC |  |  |  |  | binding result [2]: binds; EC50 [3]: ~100 ng/mL |
| m1B6 anti-Claudin 18.2 murine monoclonal antibody (antibody, mouse IgG2b, kappa, Murine antibody with full heavy and light chains; also called 1B6 (hybridoma); m1B6 mAb) heavy: EVQLQQSGPELVRPGASVKMSCKASGYTFTDYNMHWVKQSHGKSLEWIGYINPNNGGTSYNQKFKGKATLTVNKSSSTAYMELRSLTSEDSAVYYCVTTRYLAVWGTGTTVTVSSAKTTPPSVYPLAPGCGDTTGSSVTLGCLVKGYFPESVTVTWNSGSLSSSVHTFPALLQSGLYTMSSSVTVPSSTWPSQTVTCSVAHPASSTTVDKKLEPSGPISTINPCPPCKECHKCPAPNLEGGPSVFIFPPNIKDVLMISLTPKVTCVVVDVSEDDPDVQISWFVNNVEVHTAQTQTHREDYNSTIRVVSTLPIQHQDWMSGKEFKCKVNNKDLPSPIERTISKIKGLVRAPQVYILPPPAEQLSRKDVSLTCLVVGFNPGDISVEWTSNGHTEENYKDTAPVLDSDGSYFIYSKLNMKTSKWEKTDSFSCNVRHEGLKNYYLKKTISRSPGK light: DIVMTQSPSSLTVTAGEKVTMSCKSSQSLFNSGNQKNYLTWYQQKPGQPPKLLIYWASTRESGVPDRFTGSGSGTDFTLTISSVQAEDLAVYFCQNDYSYPLTFGAGTKLELRRADAAPTVSIFPPSSEQLTSGGASVVCFLNNFYPKDINVKWKIDGSERQNGVLNSWTDQDSKDSTYSMSSTLTLTKDEYERHNSYTCEATHKTSTSPIVKSFNRNEC |  |  |  |  | binding result [2]: binds; binding result [4]: binds; EC50 [3]: ~60 ng/mL |
| m1B6-FC anti-Claudin 18.2 scFv-Fc fusion protein (Fc fusion, also called m1B6 (Fc fusion protein form); 1B6 scFv-Fc; not shown: detected wi) scFv: DIVMTQSPSSLTVTAGEKVTMSCKSSQSLFNSGNQKNYLTWYQQKPGQPPKLLIYWASTRESGVPDRFTGSGSGTDFTLTISSVQAEDLAVYFCQNDYSYPLTFGAGTKLELRGGGGSGGGGSGGGGSEVQLQQSGPELVRPGASVKMSCKASGYTFTDYNMHWVKQSHGKSLEWIGYINPNNGGTSYNQKFKGKATLTVNKSSSTAYMELRSLTSEDSAVYYCVTTRYLAVWGTGTTVTVSS |  |  |  |  | EC50 [5]: ~500 ng/mL |
| m1E7-FC anti-Claudin 18.2 scFv-Fc fusion protein (Fc fusion, also called m1E7 (Fc fusion protein form); 1E7 scFv-Fc; not shown: detected wi) scFv: DIVMTQSPSSLSVTAGEKVTMSCKSSQSLLNSGNQKNYLTWYQQKPGQPPKLLIYWASTRESGVPDRFTGSGSGTDFTLTISSVQAEDLAVYYCQNDYSYPFTFGSGTKLEIKGGGGSGGGGSGGGGSQVQLQQPGSELVKPGASVKLSCKASGYTFTSYWMHWVKQRPGQGLEWIGMIHPNSGSTNYNEKFKSKATLTVDKSSSTAYMQLSSLTSEDSAVYYCARRYYGSISPDYWGQGTTLTVSS |  |  |  |  | EC50 [5]: ~2600 ng/mL |
